Assay results as given in US20250353888A1 (ENANTIS S R O, published 2025).
Where a chain is given by its changes, count along the chain named. Numbers in names are those of the source.

B1: FGF10 single-point mutant V123I (ligand)
chain: MGSSHHHHHHSSGLVPRGSHMLGQDMVSPEATNSSSSSFSSPSSAGRHVRSYNHLQGDVRWRKLFSFTKYFLKIEKNGKVSGTKKENCPYSILEITSVEIGVVAIKAINSNYYLAMNKKGKLYGSKEFNNDCKLKERIEENGYNTYASFNWQHNGRQMYVALNGKGAPRRGQKTRRKNTSAHFLPMVVHS
B2: FGF10 single-point mutant N181D (ligand)
chain: B1 chain with I105V, N163D
B3: FGF10 single-point mutant Q175E (ligand)
chain: B1 chain with I105V, Q157E

Target: FGF receptor 2b (FGFR2b) naturally expressed on 4MBr-5 rhesus monkey bronchial epithelial cells (rhesus monkey)
Experiment: cell-based or functional assay

Binder	ED50, proliferation of lung epithelial 4MBr-5 cells (resazurin) [ng/mL]
B1	0.4
B2	1.6
B3	0.2
